Test [1] concerns diaphorase. Description: fluorescently labeled diaphorase binding to peptide array with or without excess FAD. The gist of the method: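 Fluorescently labeled diaphorase, at 1 and 10 micromolar, bound to an array of about 126,000 peptides (16 amino acids; C, I, M, T omitted; GSG linker), with or without excess FAD. Fluorescence per feature scanned; 65535 marks detector saturation.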

Test [2] has as its target Diaphorase. As to the kind of experiment: peptide array, 1 uM labeled diaphorase, with FAD.
The target of test [3] is Diaphorase. As to the kind of experiment: peptide array, 10 uM diaphorase, binding without FAD / with FAD.
The target in test [4] is Diaphorase. Description: peptide array, 10 uM labeled diaphorase, with FAD.
Test [5] concerns the target Diaphorase. Description: peptide array, 1 uM diaphorase, binding without FAD / with FAD.
The target in test [6] is Diaphorase. Description: peptide array, 1 uM labeled diaphorase, no FAD.
The target of test [7] is Diaphorase. As to the kind of experiment: peptide array, 10 uM labeled diaphorase, no FAD.

For “LLGFLGGSG [array peptide with C-terminal GSG linker]”, the “1 microM FAD (array fluorescence of bound diaphorase)” value with diaphorase [1] (1 micromolar labeled diaphorase, excess FAD present, 65535 is detector saturation) is recorded as 4143.5. The “1 micro no FAD (array fluorescence of bound diaphorase)” value in the test on diaphorase [1] (1 micromolar labeled diaphorase, no FAD, 65535 is detector saturation) was 2317.75. The “10 microM FAD (array fluorescence of bound diaphorase)” value with diaphorase [1] (10 micromolar labeled diaphorase, excess FAD present, 65535 is detector saturation) is recorded as 40264.25. Also, the “10 microM no FAD (array fluorescence of bound diaphorase)” value in the test with diaphorase [1] (10 micromolar labeled diaphorase, no FAD, 65535 is detector saturation) was determined as 26253. In addition, the “1 microM noFAD/FAD” value in the test with diaphorase [1] (ratio of binding without FAD to binding with FAD, 1 micromolar diaphorase) came out at 0.5594. In addition, the “10 microM noFAD/FAD” value in the test on diaphorase [1] (ratio of binding without FAD to binding with FAD, 10 micromolar diaphorase) is 0.652. The Meas. ratio in the test with diaphorase [1] (ratio without/with FAD calculated from measured binding values, 1 micromolar diaphorase) is on record as 0.56.

B1: … (peptide)
peptide: RWKYQKFNGGSG
For B1, the fluorescence was 3860 in the test with Diaphorase [2], 46200 with Diaphorase [4], 10200 in the test with Diaphorase [6] and 61300 with Diaphorase [7]. Besides, the noFAD/FAD turned out to be 1.33 in the test with Diaphorase [3] and 2.63 with Diaphorase [5].

B2: … (peptide)
peptide: QLLQLLFGGSG
As for B2, the fluorescence with Diaphorase [2] turned out to be 6310; with Diaphorase [4], 53400; with Diaphorase [6], 3230; in the test with Diaphorase [7] it was 19500. Also, the figures for the noFAD/FAD with Diaphorase [3] and with Diaphorase [5] were 0.366 and 0.511, respectively.

B3: … (peptide)
peptide: KEAPGPRFGGSG
B3: the fluorescence with Diaphorase [2] was determined as 8280; with Diaphorase [4], 5470; with Diaphorase [6] it was 1070; with Diaphorase [7], 5610. Also, the noFAD/FAD with Diaphorase [3] came out at 1.03; with Diaphorase [5] it was 0.129.

B4: … (peptide)
peptide: SVLEGYQAVFGGSG
For B4, the fluorescence with Diaphorase [2] was found to be 2660; in the test with Diaphorase [4], 21500; with Diaphorase [6] it was 1340; with Diaphorase [7], 6070. In addition, the noFAD/FAD turned out to be 0.282 with Diaphorase [3] and 0.503 in the test with Diaphorase [5].

B5: … (peptide)
peptide: VERASYNLDGSG
On to B5, for which the fluorescence with Diaphorase [2] was 2240; in the test with Diaphorase [4], 3370; with Diaphorase [6], 759; with Diaphorase [7], 2900. Further, the noFAD/FAD with Diaphorase [3] came to 0.86; in the test with Diaphorase [5], 0.339.

B6: … (peptide)
peptide: YSVDYWYQVDGSG
As for B6, the fluorescence in the test with Diaphorase [2] was found to be 10400; with Diaphorase [4], 19200; in the test with Diaphorase [6], 1800; in the test with Diaphorase [7], 19800. Moreover, the noFAD/FAD in the test with Diaphorase [3] was determined as 1.03; in the test with Diaphorase [5], 0.173.

B7: … (peptide)
peptide: KNRPYNKDLEDGSG
For the molecule B7, the fluorescence is 5150 in the test with Diaphorase [2], 2590 in the test with Diaphorase [4], 733 with Diaphorase [6] and 2520 with Diaphorase [7]. Further, the noFAD/FAD amounted to 0.974 with Diaphorase [3] and 0.142 with Diaphorase [5].

B8: … (peptide)
peptide: WRGFKFADGGSG
In the case of B8, the fluorescence in the test with Diaphorase [2] amounted to 2160; with Diaphorase [4] it was 31500; in the test with Diaphorase [6], 5650; with Diaphorase [7], 58900. The noFAD/FAD is 1.87 in the test with Diaphorase [3] and 2.62 with Diaphorase [5].

B9: … (peptide)
peptide: VKDGANKHYWRVSGSG
Regarding B9, the fluorescence was 12300 with Diaphorase [2], 17800 with Diaphorase [4], 2220 with Diaphorase [6] and 20400 with Diaphorase [7]. Moreover, the noFAD/FAD in the test with Diaphorase [3] is 1.14; with Diaphorase [5], 0.18.

B10: … (peptide)
peptide: LAKQNRVEDGSG
Regarding B10, the fluorescence turned out to be 1440 with Diaphorase [2], 3700 in the test with Diaphorase [4], 770 with Diaphorase [6] and 2950 with Diaphorase [7]. Besides, the noFAD/FAD was determined as 0.797 with Diaphorase [3] and 0.537 with Diaphorase [5].

B11: … (peptide)
peptide: RQYQKHSYAKFSGSG
Take B11: the fluorescence in the test with Diaphorase [2] worked out at 2460; in the test with Diaphorase [4], 27300; in the test with Diaphorase [6] it was 6760; in the test with Diaphorase [7], 57200. Besides, the noFAD/FAD in the test with Diaphorase [3] was 2.1; in the test with Diaphorase [5], 2.75.

B12: … (peptide)
peptide: DLDKAFGGSG
With B12, the fluorescence in the test with Diaphorase [2] was determined as 2050; with Diaphorase [4] it was 2140; in the test with Diaphorase [6], 607; with Diaphorase [7], 1850. Further, the noFAD/FAD came to 0.865 with Diaphorase [3] and 0.296 with Diaphorase [5].

B13: … (peptide)
peptide: RLQYLFKSDGSG
Consider B13, for which the fluorescence amounted to 1960 in the test with Diaphorase [2], 30600 with Diaphorase [4], 5780 with Diaphorase [6] and 64300 in the test with Diaphorase [7]. Moreover, the noFAD/FAD was 2.1 with Diaphorase [3] and 2.94 in the test with Diaphorase [5].

B14: … (peptide)
peptide: EDEGLSKFEGGSG
Regarding B14, the fluorescence stood at 4170 in the test with Diaphorase [2], 1380 with Diaphorase [4], 561 in the test with Diaphorase [6] and 1220 in the test with Diaphorase [7]. In addition, the noFAD/FAD in the test with Diaphorase [3] was 0.885; with Diaphorase [5] it was 0.135.

B15: … (peptide)
peptide: RPLQVQRGGS
As to B15, the fluorescence in the test with Diaphorase [2] was 14400; with Diaphorase [4] it was 41100; in the test with Diaphorase [6] it was 5410; with Diaphorase [7], 53200. For the same molecule, the noFAD/FAD with Diaphorase [3] turned out to be 1.3; with Diaphorase [5], 0.375.

B16: … (peptide)
peptide: RFKYPLDGGSG
On to B16, for which the fluorescence was determined as 2200 in the test with Diaphorase [2], 30400 with Diaphorase [4], 5760 with Diaphorase [6] and 55900 in the test with Diaphorase [7]. For the same molecule, the noFAD/FAD was 1.84 with Diaphorase [3] and 2.62 with Diaphorase [5].

B17: … (peptide)
peptide: YNRNAKSSGGSG
On to B17, for which the fluorescence in the test with Diaphorase [2] stood at 1550; with Diaphorase [4] it was 18600; with Diaphorase [6], 4010; with Diaphorase [7], 41300. Moreover, the noFAD/FAD was found to be 2.23 with Diaphorase [3] and 2.6 with Diaphorase [5].

B18: … (peptide)
peptide: RSHPKHNVGSG
In the case of B18, the fluorescence with Diaphorase [2] is 3880; with Diaphorase [4], 12200; in the test with Diaphorase [6], 1950; in the test with Diaphorase [7] it was 17000. The noFAD/FAD in the test with Diaphorase [3] came to 1.39; with Diaphorase [5], 0.504.

B19: … (peptide)
peptide: YRFQSGLPAKDGSG
Take B19: the fluorescence in the test with Diaphorase [2] was 1490; with Diaphorase [4], 20200; with Diaphorase [6], 4040; in the test with Diaphorase [7] it was 50300. In addition, the noFAD/FAD with Diaphorase [3] is 2.49; with Diaphorase [5] it was 2.71.

Source of the values: patent US20190064177A1, “INCORPORATING COMPETITIVE BINDING INFORMATION INTO MOLECULAR ARRAY ANALYSIS TO GENERATE FUNCTION NETWORKS OF INTERACTIONS” (ARIZONA BOARD OF REGENTS ON BEHALF OF ARIZONA STATE …, priority 2017, published 2019).
